The source of these data is publication doi:10.1101/2021.11.05.467472 (bioRxiv, 2021).

To fix the notation:
B5: NTD_(1-53)-sfGFP-His (domain or fragment)
chain: MNTRNTRSKQRAPFGVSSSVKPRLDLIEQAPNPAYDRHPACITLPERTCRHPL

Data set [1] has as its target T1, Rubisco-strep (H. neapolitanus CbbL8S8) (H. neapolitanus, UniProt O85040 1-473; P45686 1-110). Briefly: cryo-EM structure.
The target of data set [2] is T2, CbbS (Rubisco small subunit) (H. neapolitanus, UniProt P45686 1-110).
T2 sequence: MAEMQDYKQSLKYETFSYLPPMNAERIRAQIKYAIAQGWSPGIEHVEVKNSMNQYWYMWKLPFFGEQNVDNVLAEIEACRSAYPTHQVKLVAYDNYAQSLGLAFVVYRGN
Kind of data set: cryo-EM structure.

The data set “cryo-EM structure” deals with the molecule itself. Briefly: cryo-EM structure.
Data set [3] deals with T1, Rubisco-strep (H. neapolitanus CbbL8S8). Briefly: BLI. A general note: BLI is a label-free optical method that tracks binding on a fibre tip over time.
The data set “NTD_(1-53)-sfGFP-His” concerns the target B5. Kind of data set: BLI.
Data set [4] has as its target T1, Rubisco-strep (H. neapolitanus CbbL8S8). Briefly: SEC. (In gel filtration, larger molecules generally elute earlier.)
A further data set addresses biotinylated Rubisco (H. neapolitanus, UniProt O85040 1-473; P45686 1-110, biotin (subunit and site not stated)). Kind of data set: BLI.

Regarding MNTRNTRSKQRAPFGVSSSVKPRLDLIEQAPNPAYDRHPACITLPERTCR [NTD_(1-50) peptide (CsoSCA residue 1-50)], the “stoichiometry N” value in data set [1] came to 8. In addition, the binding result in data set [2] is reported as “binds”.

B1: CbbL (Rubisco large subunit) (natural protein)
chain: MAVKKYSAGVKEYRQTYWMPEYTPLDSDILACFKITPQPGVDREEAAAAVAAESSTGTWTTVWTDLLTDMDYYKGRAYRIEDVPGDDAAFYAFIAYPIDLFEEGSVVNVFTSLVGNVFGFKAVRGLRLEDVRFPLAYVKTCGGPPHGIQVERDKMNKYGRPLLGCTIKPKLGLSAKNYGRAVYECLRGGLDFTKDDENINSQPFMRWRDRFLFVQDATETAEAQTGERKGHYLNVTAPTPEEMYKRAEFAKEIGAPIIMHDYITGGFTANTGLAKWCQDNGVLLHIHRAMHAVIDRNPNHGIHFRVLTKILRLSGGDHLHTGTVVGKLEGDRASTLGWIDLLRESFIPEDRSRGIFFDQDWGSMPGVFAVASGGIHVWHMPALVNIFGDDSVLQFGGGTLGHPWGNAAGAAANRVALEACVEARNQGRDIEKEGKEILTAAAQHSPELKIAMETWKEIKFEFDTVDKLDTQNR
Take B1: the binding result in the data set “cryo-EM structure” is “binds”.

B2: NTD_(1-53)-sfGFP R23A (domain or fragment)
chain: MNTRNTRSKQRAPFGVSSSVKPALDLIEQAPNPAYDRHPACITLPERTCRHPL
As to B2, in data set [3], the binding result is recorded as “binds”.

B3: Rubisco CbbL Y72A (complex)
chain 1: MAVKKYSAGVKEYRQTYWMPEYTPLDSDILACFKITPQPGVDREEAAAAVAAESSTGTWTTVWTDLLTDMDAYKGRAYRIEDVPGDDAAFYAFIAYPIDLFEEGSVVNVFTSLVGNVFGFKAVRGLRLEDVRFPLAYVKTCGGPPHGIQVERDKMNKYGRPLLGCTIKPKLGLSAKNYGRAVYECLRGGLDFTKDDENINSQPFMRWRDRFLFVQDATETAEAQTGERKGHYLNVTAPTPEEMYKRAEFAKEIGAPIIMHDYITGGFTANTGLAKWCQDNGVLLHIHRAMHAVIDRNPNHGIHFRVLTKILRLSGGDHLHTGTVVGKLEGDRASTLGWIDLLRESFIPEDRSRGIFFDQDWGSMPGVFAVASGGIHVWHMPALVNIFGDDSVLQFGGGTLGHPWGNAAGAAANRVALEACVEARNQGRDIEKEGKEILTAAAQHSPELKIAMETWKEIKFEFDTVDKLDTQNR
chain 2: MAEMQDYKQSLKYETFSYLPPMNAERIRAQIKYAIAQGWSPGIEHVEVKNSMNQYWYMWKLPFFGEQNVDNVLAEIEACRSAYPTHQVKLVAYDNYAQSLGLAFVVYRGN
As for B3, the “fold increase in KD against wild type” value with NTD_(1-53)-sfGFP-His is 10 fold.

B4: Rubisco CbbL D99A (complex)
chain 1: MAVKKYSAGVKEYRQTYWMPEYTPLDSDILACFKITPQPGVDREEAAAAVAAESSTGTWTTVWTDLLTDMDYYKGRAYRIEDVPGDDAAFYAFIAYPIALFEEGSVVNVFTSLVGNVFGFKAVRGLRLEDVRFPLAYVKTCGGPPHGIQVERDKMNKYGRPLLGCTIKPKLGLSAKNYGRAVYECLRGGLDFTKDDENINSQPFMRWRDRFLFVQDATETAEAQTGERKGHYLNVTAPTPEEMYKRAEFAKEIGAPIIMHDYITGGFTANTGLAKWCQDNGVLLHIHRAMHAVIDRNPNHGIHFRVLTKILRLSGGDHLHTGTVVGKLEGDRASTLGWIDLLRESFIPEDRSRGIFFDQDWGSMPGVFAVASGGIHVWHMPALVNIFGDDSVLQFGGGTLGHPWGNAAGAAANRVALEACVEARNQGRDIEKEGKEILTAAAQHSPELKIAMETWKEIKFEFDTVDKLDTQNR
chain 2: MAEMQDYKQSLKYETFSYLPPMNAERIRAQIKYAIAQGWSPGIEHVEVKNSMNQYWYMWKLPFFGEQNVDNVLAEIEACRSAYPTHQVKLVAYDNYAQSLGLAFVVYRGN
As to B4, in the data set with NTD_(1-53)-sfGFP-His, the “fold increase in KD against wild type” value worked out at 10 fold.
On to B5, for which, in data set [4], the binding result was “binds”.

B6: CsoSCA-MBP (enzyme)
chain: MNTRNTRSKQRAPFGVSSSVKPRLDLIEQAPNPAYDRHPACITLPERTCRHPLTDLEANEQLGRCEDSVKNRFDRVIPFLQVVAGIPLGLDYVTRVQELAQSSLGHTLPEELLKDNWISGHNLKGIFGYATAKALTAATEQFSRKIMSEKDDSASAIGFFLDCGFHAVDISPCADGRLKGLLPYILRLPLTAFTYRKAYAGSMFDIEDDLAQWEKNELRRYREGVPNTADQPTRYLKIAVYHFSTSDPTHSGCAAHGSNDRAALEAALTQLMKFREAVENAHCCGASIDILLIGVDTDTDAIRVHIPDSKGFLNPYRYVDNTVTYAQTLHLAPDEARVIIHEAILNANRSDGWAKGNGVASEGMRRFIGQLLINNLSQIDYVVNRHGGRYPPNDIGHAERYISVGDGFDEVQIRNLAYYAHLDTVEENAIDVDVGIKIFTKLNLSRGLPIPIAIHYRYDPNVPGSRERTVVKARRIYNAIKERFSSLDEQNLLQFRLSVQAQDIGSPIEEVASA
Regarding B6, in the data set with biotinylated Rubisco, the Kd was found to be 1.2 ± 0.1 nM.

Usually stoichiometry N stands for a count of units in the complex or per binding partner. Broadly, the Kd is the free concentration of one partner at which half of the binding sites on the other are occupied at equilibrium, for simple one-to-one binding. The low end stands for higher affinity, the high end for lower affinity.
